Patent publication US10426815B2, “Prevention and treatment of itch with an MRGPR antagonist” (THE GENERAL HOSPITAL CORPORATION, priority 2015, dated 2019)

Molecular target: T1, MrgC11 (mouse MrgprC11) (Mus musculus, UniProt Q8CIP3)
T1 construct: expressed in transfected cells; host or cells: HeLa cells
T1 sequence (Q8CIP3 1-322): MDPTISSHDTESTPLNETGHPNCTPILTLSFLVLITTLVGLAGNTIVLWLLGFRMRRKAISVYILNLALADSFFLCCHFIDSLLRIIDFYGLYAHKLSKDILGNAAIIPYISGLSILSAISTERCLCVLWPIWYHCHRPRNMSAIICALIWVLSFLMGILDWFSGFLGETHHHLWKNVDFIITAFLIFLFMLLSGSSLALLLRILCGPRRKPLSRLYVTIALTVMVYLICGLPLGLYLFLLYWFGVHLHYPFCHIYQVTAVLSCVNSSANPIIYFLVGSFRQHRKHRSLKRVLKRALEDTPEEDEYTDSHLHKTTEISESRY
Assay: Calcium imaging of cells transfected with the GPCR (Table 1)
Format: cell-based
Details: capsaicin 3 μM

activation of mouse MrgprC11 by the substance (in words): activates
Substance: SLIGRL: tethered hexapeptide ligand of mouse PAR2 (SEQ ID NO: 7)
